Data on 10 molecules can be found in US7291332B2, “Inflammatory mediator antagonists” (SmithKline Beecham Corporation, priority 1998, dated 2007).

The subject of this assay is HepG2 B6 cells (STAT-sPAP reporter). The assay is described as follows: OSM-GST mutant driven sPAP production in HepG2 B6 assay. The class given is cell-based, human. To be noted: for 'Potency': relative to wild type, from Mean %. Here is the method: HepG2 B6 cells were plated into 96 well plates to a final concentration of 3×10^4 cells per well in 100 μl of media (DMEM (Sigma), 10% HI FCS, 1% non-essential amino acids, 2 mM Glutamine, 500 μg ml^−1 G418, (all from Life Technologies)). Cells were allowed to equilibrate for 48 hours. Putative anti-OSM solid compounds were made up to a stock dilution of 20 mM in DMSO and serially diluted 1:3 in DMSO. This was then further diluted in HepG26B assay media, this is as above media but with 1% heat inactivated FCS, low alkaline phosphatase activity (Life Technologies) substituted for 10% HI FCS. Compounds were diluted 1:3 from a top concentration of […] to a final concentration of 0.09 μM in a final concentration of 1% DMSO. (That is 200, 66.67, 22.22, 7.41, 2.47, 0.82, 0.27, 0.09 and 0 μM). The old media was removed from the wells and replaced with diluted compound also containing 2 ng ml^−1 OSM (R&D Systems), cells were incubated for a further 20 hours. Each dilution was performed in triplicate. 20 μl of media was removed from each well and assayed for sPAP activity using pNPP (p-Nitrophenyl phosphate; Sigma), as a substrate. Endogenous alkaline phosphatase is blocked with L-homoarginine. Optical density of substrate is read at 405-650 nm. Concentration of compound is plotted against OD as a measure of sPAP produced and can be analysed to determine IC50 values.
The assay described in Example 7b above was employed. OSM-GST mutants were diluted to a concentration of 100 ng ml^−using the known concentration of intact OSM mutants generated in Example 9b. A wild type OSM-GST was included for control purposes. Dilutions were made in HepG2 B6 media with 1% heat inactivated FCS, low alkaline phosphatase activity. Serial 1:3 dilutions were then made. (100; 33.33; 11.11; 3.7; 1.23; 0.4 ng ml^−1). 3×10^4 HepG2 B6 were dispensed into individual well of a 96 well plate in 100 μl of media. Cells were allowed to equilibrate for 48 hours. Media was then removed and replaced with 100 μl of diluted OSM-GST mutant. Cells were incubated for a further 20 hours. Each dilution was performed in triplicate. 20 μl of media was removed and assayed for sPAP using pNPP as a substrate. Endogenous ALP was blocked with L-homoarginine. O.D. was read at 405-650 nm. The experiment was repeated twice.

B1: (18) N117A: OSM-GST fusion, alanine for Asn 117 (protein)
chain: AAIGSCSKEYRVLLGQLQKQTDLMQDTSRLLDPYIRIQGLDVPKLREHCRERPGAFPSEETLRGLGRRGFLQTLNATLGCVLHRLADLEQRLPKAQDLERSGLNIEDLEKLQMARPAILGLRNNIYCMAQLLDNSDTAEPTKAGRGASQPPTPTPASDAFQRKLEGCRFLHGYHRFMHSVGRVFSKWGESPNRSRR
modifications: left off: a dimerising Fc or GST; large carriers; small tags and cut ends
As for B1, the “Expt 1 EC50” value was 0.058 µg/mL, the “Expt 2 EC50” value amounted to 0.0425 µg/mL and the “'Potency'” value is “LESS (>120% Less potent than wild type)”.

B2: (24) Y126A: OSM-GST fusion, alanine for Tyr 126 (protein)
chain: AAIGSCSKEYRVLLGQLQKQTDLMQDTSRLLDPYIRIQGLDVPKLREHCRERPGAFPSEETLRGLGRRGFLQTLNATLGCVLHRLADLEQRLPKAQDLERSGLNIEDLEKLQMARPNILGLRNNIACMAQLLDNSDTAEPTKAGRGASQPPTPTPASDAFQRKLEGCRFLHGYHRFMHSVGRVFSKWGESPNRSRR
modifications: left off: a dimerising Fc or GST; large carriers; small tags and cut ends
In the case of B2, the “Expt 1 EC50” value is 0.093 µg/mL, the “Expt 2 EC50” value was 0.0103 µg/mL, the “Expt 3 EC50” value was 0.0408 µg/mL and the “'Potency'” value was “LESS (>120% Less potent than wild type)”.

B3: (21) R122A: OSM-GST fusion, alanine for Arg 122 (protein)
chain: AAIGSCSKEYRVLLGQLQKQTDLMQDTSRLLDPYIRIQGLDVPKLREHCRERPGAFPSEETLRGLGRRGFLQTLNATLGCVLHRLADLEQRLPKAQDLERSGLNIEDLEKLQMARPNILGLANNIYCMAQLLDNSDTAEPTKAGRGASQPPTPTPASDAFQRKLEGCRFLHGYHRFMHSVGRVFSKWGESPNRSRR
modifications: left off: a dimerising Fc or GST; large carriers; small tags and cut ends
On to B3, for which the “Expt 1 EC50” value is 0.0324 µg/mL, the “Expt 2 EC50” value was 0.0138 µg/mL, the “Expt 3 EC50” value is 0.0473 µg/mL and the “'Potency'” value is on record as “EQUAL (80-120% Equal potency)”.

B4: (27) D26A: OSM-GST fusion, alanine for Asp 26 (protein)
chain: AAIGSCSKEYRVLLGQLQKQTDLMQATSRLLDPYIRIQGLDVPKLREHCRERPGAFPSEETLRGLGRRGFLQTLNATLGCVLHRLADLEQRLPKAQDLERSGLNIEDLEKLQMARPNILGLRNNIYCMAQLLDNSDTAEPTKAGRGASQPPTPTPASDAFQRKLEGCRFLHGYHRFMHSVGRVFSKWGESPNRSRR
modifications: left off: a dimerising Fc or GST; large carriers; small tags and cut ends
For the molecule B4, the “Expt 1 EC50” value came out at 0.0195 µg/mL, the “Expt 2 EC50” value was determined as 0.0255 µg/mL and the “'Potency'” value is on record as “EQUAL (80-120% Equal potency)”.

B5: (2) K8A: OSM-GST fusion, alanine for Lys 8 (protein)
chain: AAIGSCSAEYRVLLGQLQKQTDLMQDTSRLLDPYIRIQGLDVPKLREHCRERPGAFPSEETLRGLGRRGFLQTLNATLGCVLHRLADLEQRLPKAQDLERSGLNIEDLEKLQMARPNILGLRNNIYCMAQLLDNSDTAEPTKAGRGASQPPTPTPASDAFQRKLEGCRFLHGYHRFMHSVGRVFSKWGESPNRSRR
modifications: left off: a dimerising Fc or GST; large carriers; small tags and cut ends
For the molecule B5, the “Expt 1 EC50” value is 0.016 µg/mL, the “Expt 2 EC50” value worked out at 0.0125 µg/mL and the “'Potency'” value is on record as “MORE (<80% More potent)”.

B6: (19) L119A: OSM-GST fusion, alanine for Leu 119 (protein)
chain: AAIGSCSKEYRVLLGQLQKQTDLMQDTSRLLDPYIRIQGLDVPKLREHCRERPGAFPSEETLRGLGRRGFLQTLNATLGCVLHRLADLEQRLPKAQDLERSGLNIEDLEKLQMARPNIAGLRNNIYCMAQLLDNSDTAEPTKAGRGASQPPTPTPASDAFQRKLEGCRFLHGYHRFMHSVGRVFSKWGESPNRSRR
modifications: left off: a dimerising Fc or GST; large carriers; small tags and cut ends
Take B6: the “Expt 1 EC50” value was determined as 0.0278 µg/mL, the “Expt 2 EC50” value was determined as 0.023 µg/mL and the “'Potency'” value is on record as “EQUAL (80-120% Equal potency)”.

B7: (26) Q25A: OSM-GST fusion, alanine for Gln 25 (protein)
chain: AAIGSCSKEYRVLLGQLQKQTDLMADTSRLLDPYIRIQGLDVPKLREHCRERPGAFPSEETLRGLGRRGFLQTLNATLGCVLHRLADLEQRLPKAQDLERSGLNIEDLEKLQMARPNILGLRNNIYCMAQLLDNSDTAEPTKAGRGASQPPTPTPASDAFQRKLEGCRFLHGYHRFMHSVGRVFSKWGESPNRSRR
modifications: left off: a dimerising Fc or GST; large carriers; small tags and cut ends
With B7, the “Expt 1 EC50” value amounted to 0.0133 µg/mL, the “Expt 2 EC50” value stood at 0.013 µg/mL and the “'Potency'” value was “MORE (<80% More potent)”.

B8: (3) E9A: OSM-GST fusion, alanine for Glu 9 (protein)
chain: AAIGSCSKAYRVLLGQLQKQTDLMQDTSRLLDPYIRIQGLDVPKLREHCRERPGAFPSEETLRGLGRRGFLQTLNATLGCVLHRLADLEQRLPKAQDLERSGLNIEDLEKLQMARPNILGLRNNIYCMAQLLDNSDTAEPTKAGRGASQPPTPTPASDAFQRKLEGCRFLHGYHRFMHSVGRVFSKWGESPNRSRR
modifications: left off: a dimerising Fc or GST; large carriers; small tags and cut ends
Turning to B8, the “Expt 1 EC50” value came out at 0.0236 µg/mL, the “Expt 2 EC50” value amounted to 0.0089 µg/mL and the “'Potency'” value is listed as “MORE (<80% More potent)”.

B9: (1) S7A: OSM-GST fusion, alanine for Ser 7 (protein)
chain: AAIGSCAKEYRVLLGQLQKQTDLMQDTSRLLDPYIRIQGLDVPKLREHCRERPGAFPSEETLRGLGRRGFLQTLNATLGCVLHRLADLEQRLPKAQDLERSGLNIEDLEKLQMARPNILGLRNNIYCMAQLLDNSDTAEPTKAGRGASQPPTPTPASDAFQRKLEGCRFLHGYHRFMHSVGRVFSKWGESPNRSRR
modifications: left off: a dimerising Fc or GST; large carriers; small tags and cut ends
Take B9: the “Expt 1 EC50” value was 0.012 µg/mL, the “Expt 2 EC50” value came to 0.0222 µg/mL and the “'Potency'” value was “MORE (<80% More potent)”.

B10: (25) Y130A: OSM-GST fusion, alanine for Gln 130 (protein)
chain: AAIGSCSKEYRVLLGQLQKQTDLMQDTSRLLDPYIRIQGLDVPKLREHCRERPGAFPSEETLRGLGRRGFLQTLNATLGCVLHRLADLEQRLPKAQDLERSGLNIEDLEKLQMARPNILGLRNNIYCMAALLDNSDTAEPTKAGRGASQPPTPTPASDAFQRKLEGCRFLHGYHRFMHSVGRVFSKWGESPNRSRR
modifications: left off: a dimerising Fc or GST; large carriers; small tags and cut ends
Take B10: the “Expt 1 EC50” value stood at 0.0125 µg/mL, the “Expt 2 EC50” value was found to be 0.0082 µg/mL and the “'Potency'” value is listed as “MORE (<80% More potent)”.
